The source of these data is the supplement of paper PMC9112550, “Optimization of the antimicrobial peptide Bac7 by deep mutational scanning” (BMC Biology, 2022).
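Further: peptides expressed intracellularly from a pBAD plasmid library in pooled LB shake-flask culture, induced with 0.3% L-arabinose, DNA abundance read by NGS, three biological replicates, DESeq2 with apeglm shrinkage.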

The series relates to Escherichia coli TOP10. Briefly: shrunken log2 fold change of peptide-encoding DNA abundance (4.5 h post-induction vs induction); higher = less antimicrobial activity (less host growth inhibition). The note with it: time post-induction: 4.5 h; library: site-saturation at positions 5, 18, 19, 20.
For RRIRVRPPRLPRPRPRPEYFPRP, the “shrunken log2 fold change” value was -0.285. With RRIRVRPPRLPRPRPRPKCLPRP, the “shrunken log2 fold change” value turned out to be 0.127. The same measure for RRIRPRPPRLPRPRPRPFRQPRP: -0.00634. As for RRIRPRPPRLPRPRPRPGPVPRP, the “shrunken log2 fold change” value came to 0.258.

Regarding RRIRKRPPRLPRPRPRPCMTPRP, the “shrunken log2 fold change” value was found to be 0.0372.

Regarding RRIRARPPRLPRPRPRPEYMPRP, the “shrunken log2 fold change” value was -0.276. With RRIRSRPPRLPRPRPRPAGVPRP the figure was 0.0729. Consider RRIRMRPPRLPRPRPRPMFTPRP, for which the “shrunken log2 fold change” value came to 0.0379. The same measure for RRIRGRPPRLPRPRPRPTAWPRP: 1.84; for RRIRTRPPRLPRPRPRPAARPRP: 0.374. With RRIRMRPPRLPRPRPRPSMAPRP the figure was 0.925; with RRIRNRPPRLPRPRPRPKHHPRP, -0.487.

In the case of RRIRARPPRLPRPRPRPMFKPRP, the “shrunken log2 fold change” value is -0.106. With RRIRIRPPRLPRPRPRPWHCPRP the figure was -0.0926; with RRIRTRPPRLPRPRPRPVIDPRP, -0.0797; with RRIRERPPRLPRPRPRPAFQPRP, 0.0677. The same measure for RRIRHRPPRLPRPRPRPHYTPRP: -0.903. With RRIRPRPPRLPRPRPRPKKNPRP the figure was 0.0249; with RRIRRRPPRLPRPRPRPVGRPRP, 0.472.

Regarding RRIRCRPPRLPRPRPRPWVWPRP, the “shrunken log2 fold change” value is -0.00389.

As to RRIRIRPPRLPRPRPRPKAEPRP, the “shrunken log2 fold change” value stood at 0.124. The same measure for RRIRCRPPRLPRPRPRPNYCPRP: -0.3; for RRIRFRPPRLPRPRPRPRMSPRP: 0.000208; for RRIRSRPPRLPRPRPRPIQKPRP: 0.0496. With RRIRHRPPRLPRPRPRPFDSPRP the figure was -0.00149. With RRIRTRPPRLPRPRPRPMTSPRP the figure was -0.168. With RRIRLRPPRLPRPRPRPIVSPRP, the “shrunken log2 fold change” value was -0.0372. In the case of RRIRLRPPRLPRPRPRPPHLPRP, the “shrunken log2 fold change” value was -0.0637. With RRIRMRPPRLPRPRPRPMSAPRP the figure was 0.333.

Turning to RRIRIRPPRLPRPRPRPWGKPRP, the “shrunken log2 fold change” value was -0.814. The same measure for RRIRGRPPRLPRPRPRPHFGPRP: 0.242; for RRIRPRPPRLPRPRPRPWPGPRP: 0.367; for RRIRHRPPRLPRPRPRPCHFPRP: -0.0384.

Turning to RRIRKRPPRLPRPRPRPDNMPRP, the “shrunken log2 fold change” value came out at 0.107. With RRIRVRPPRLPRPRPRPVIMPRP the figure was -0.227; with RRIRQRPPRLPRPRPRPQIAPRP, -0.133; with RRIRWRPPRLPRPRPRPRRPPRP, 0.508. The same measure for RRIRPRPPRLPRPRPRPPDVPRP: 0.274; for RRIRHRPPRLPRPRPRPYNTPRP: -1.01; for RRIRNRPPRLPRPRPRPREAPRP: 0.00436. With RRIRSRPPRLPRPRPRPHDPPRP the figure was -0.0194; with RRIRYRPPRLPRPRPRPCASPRP, -0.12; with RRIRSRPPRLPRPRPRPRQFPRP, 0.165. Take RRIRPRPPRLPRPRPRPMTMPRP: the “shrunken log2 fold change” value is -0.469. The same measure for RRIRFRPPRLPRPRPRPMTNPRP: -0.2. The same measure for RRIRKRPPRLPRPRPRPIMLPRP: 0.0564. The same measure for RRIRQRPPRLPRPRPRPFSHPRP: -0.127; for RRIRRRPPRLPRPRPRPKFHPRP: 0.323; for RRIRKRPPRLPRPRPRPLEKPRP: 0.219. On to RRIRNRPPRLPRPRPRPGGRPRP, for which the “shrunken log2 fold change” value is 0.0809. As to RRIRDRPPRLPRPRPRPMNQPRP, the “shrunken log2 fold change” value was -0.334. As to RRIRVRPPRLPRPRPRPYYFPRP, the “shrunken log2 fold change” value was -0.777. With RRIRYRPPRLPRPRPRPTRLPRP the figure was 0.262; with RRIRNRPPRLPRPRPRPCLTPRP, 0.0253; with RRIRDRPPRLPRPRPRPDITPRP, 0.282.

For RRIRHRPPRLPRPRPRPVIYPRP, the “shrunken log2 fold change” value is -0.678. The same measure for RRIRLRPPRLPRPRPRPDFCPRP: -0.0853; for RRIRKRPPRLPRPRPRPYDTPRP: -0.246.

Regarding RRIRCRPPRLPRPRPRPVLEPRP, the “shrunken log2 fold change” value is -0.249. The same measure for RRIRYRPPRLPRPRPRPTQDPRP: 0.542. The same measure for RRIRNRPPRLPRPRPRPTMPPRP: 0.0915. The same measure for RRIRLRPPRLPRPRPRPCFRPRP: 0.0965; for RRIRHRPPRLPRPRPRPIRTPRP: -0.0747. As to RRIRMRPPRLPRPRPRPYDEPRP, the “shrunken log2 fold change” value was determined as 0.0491. With RRIRLRPPRLPRPRPRPARMPRP the figure was 0.386. The same measure for RRIRQRPPRLPRPRPRPAETPRP: 0.0338.

Turning to RRIRMRPPRLPRPRPRPKLWPRP, the “shrunken log2 fold change” value amounted to 1.41. In the case of RRIRLRPPRLPRPRPRPMADPRP, the “shrunken log2 fold change” value came out at 0.0237.

Regarding RRIRFRPPRLPRPRPRPHKEPRP, the “shrunken log2 fold change” value is -0.203. The same measure for RRIRKRPPRLPRPRPRPQEMPRP: -0.00136; for RRIRQRPPRLPRPRPRPPTFPRP: 0.0128. In the case of RRIRQRPPRLPRPRPRPVHKPRP, the “shrunken log2 fold change” value stood at 0.0383. With RRIRHRPPRLPRPRPRPWWCPRP the figure was -0.034. Turning to RRIRGRPPRLPRPRPRPADEPRP, the “shrunken log2 fold change” value was found to be 0.239.

For RRIRARPPRLPRPRPRPDMPPRP, the “shrunken log2 fold change” value amounted to 0.0755.

In the case of RRIRSRPPRLPRPRPRPLVEPRP, the “shrunken log2 fold change” value is 0.28.

Consider RRIRCRPPRLPRPRPRPCYIPRP, for which the “shrunken log2 fold change” value was -0.0945.

As to RRIRMRPPRLPRPRPRPTCGPRP, the “shrunken log2 fold change” value is 0.942.

Consider RRIRSRPPRLPRPRPRPQQCPRP, for which the “shrunken log2 fold change” value is -0.146.

As to RRIRHRPPRLPRPRPRPPGRPRP, the “shrunken log2 fold change” value was 0.593. As for RRIRSRPPRLPRPRPRPNARPRP, the “shrunken log2 fold change” value is -0.119.

As to RRIRDRPPRLPRPRPRPRGLPRP, the “shrunken log2 fold change” value turned out to be 0.825.

On to RRIRVRPPRLPRPRPRPQKNPRP, for which the “shrunken log2 fold change” value is -0.217. With RRIRPRPPRLPRPRPRPMFIPRP the figure was -0.439; with RRIRVRPPRLPRPRPRPIYVPRP, -0.0279. The same measure for RRIRMRPPRLPRPRPRPIEEPRP: 0.278; for RRIRFRPPRLPRPRPRPFFPPRP: 0.386.

Turning to RRIRQRPPRLPRPRPRPNCTPRP, the “shrunken log2 fold change” value is -0.448. With RRIRTRPPRLPRPRPRPQYTPRP the figure was -0.697; with RRIRFRPPRLPRPRPRPRNFPRP, -0.0477; with RRIRNRPPRLPRPRPRPRLLPRP, 0.0984.
